Laboratory results taken from the supplement of paper PMC10126150.
± gives the standard deviation of the averaged measurements.

Tested on: ATP
Assay: switch fluorescence ratio, 500 uM ATP over buffer (Cy3 cluster intensity, sum of 5 cycles each) (fold (ratio)); higher = stronger signal-on switching upon ATP binding; sequences stand for … in TCGTCGGCAGCGTCAGATGTGTATAAGAGACAGTTTTTTTTTTTTTTTTTTTTTTTTT…TC
Settings: aptamer strand: ATP DNA aptamer (quencher-CACCTGGGGGAGTATTGCGGAGGAAGG + anchor), 100 nM annealed; ATP concentration: 500 uM
Method in brief: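 Between each of five buffer/ATP cycles, the flow-cell was stripped with NaOH and re-annealed. Each cycle imaged Cy3-labelled switching-strand clusters, annealed to 100 nM quencher-labelled ATP aptamer on a modified Illumina MiSeq flow-cell, first in selection buffer and then after 15 min with 500 uM ATP at 22 °C. The fluorescence ratio is summed target-cycle over summed buffer-cycle Cy3 intensity per cluster, averaged per switch-domain sequence, with clusters outside 100-1000 RFU excluded.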
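Also: ATP exposure 15 min at 22 °C before imaging.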

In order of rising switch fluorescence ratio:
1. GGGTGCCGGG  0.911 ± 0.12
2. TGGTCGTACG  0.937 ± 0.071
3. CGGTAATGGG  0.943 ± 0.031
4. TTGGCTGCGG  0.95 ± 0.021
5. GAGTATGTGG  0.9516 ± 0.0029
6. GAATTTTATG  0.9549 ± 0.0062
7. TATAAAAGTG  0.958 ± 0.053
8. ACTTGTTTCG  0.961 ± 0.037
9. CGGGTTGTCT  0.963 ± 0.1
10. TGGATGTGGC  0.963 ± 0.031
11. AAGAGTAAGC  0.963 ± 0.013
12. GTGGGGGGCC  0.966 ± 0.028
13. TTTGACAGTG  0.966 ± 0.071
14. GTGGTGTTGT  0.97 ± 0.037
15. CGACGATCGT  0.971 ± 0.028
16. ATCGTAGGTT  0.972 ± 0.015
17. TTGGATTCGG  0.972 ± 0.017
18. AATGCTCTTC  0.973 ± 0.04
19. AATTGTAGGT  0.9731 ± 0.0046
20. GCGGGGGTCA  0.974 ± 0.05
21. TTTATCGCCG  0.974 ± 0.022
22. ATTCGGGCTT  0.976 ± 0.013
23. GTGAAAGTGG  0.979 ± 0.028
24. GAAGTATCGG  0.979 ± 0.024
25. AGAGGTTGGG  0.98 ± 0.04
26. ACGTGCAACT  0.981 ± 0.049
27. AATAATGGGG  0.981 ± 0.049
28. TACGGTGCAG  0.981 ± 0.024
29. GAGTGTCCGG  0.982 ± 0.025
30. TTTGACTGGT  0.984 ± 0.027
31. GTTGGGGGG  0.984 ± 0.041
32. GGGTATGCGA  0.984 ± 0.015
33. ATAAAAAGTT  0.984 ± 0.034
34. TAGGTGTGTA  0.984 ± 0.031
35. TTGGCGGACG  0.984 ± 0.026
36. ACGGGTCCGT  0.986 ± 0.011
37. TTTATTGGAA  0.9858 ± 0.0091
38. CTTTTGGAGT  0.986 ± 0.05
39. TAATTGAGAA  0.986 ± 0.037
40. GGCCCATAGC  0.986 ± 0.018
41. TGCATAAATT  0.9873 ± 0.0034
42. ATTTAAGCTC  0.987 ± 0.024
43. TTGATCTGCT  0.987 ± 0.023
44. ATTGTATTGT  0.987 ± 0.03
45. AGTGTGTCTT  0.9877 ± 0.004
46. AGTTAGGGCA  0.988 ± 0.042
47. CATTTGGGGT  0.989 ± 0.017
48. AAAATTCAGT  0.9893 ± 0.0089
49. TTTTTATATC  0.99 ± 0.028
50. ATAGTTCTGG  0.992 ± 0.018
51. AGGGGGGGCC  0.992 ± 0.038
52. GGCTCTAGGG  0.9921 ± 0.0036
53. GTTGATGGAG  0.992 ± 0.0091
54. AATAAATCAT  0.992 ± 0.024
55. GAATGTAGGT  0.993 ± 0.037
56. CAACATGGGG  0.9925 ± 0.0065
57. GGGATAGGAA  0.993 ± 0.03
58. TGCTAGGGTC  0.994 ± 0.025
59. TATGAAGAAG  0.994 ± 0.054
60. AATTTTAGTC  0.994 ± 0.04
61. CAAGAGGGAG  0.994 ± 0.018
62. GCGTTTGGGT  0.9955 ± 0.0041
63. AGTGCATTCT  0.995 ± 0.049
64. AATTCCCTTT  0.9946 ± 0.0012
65. GGGTATTATA  0.996 ± 0.03
66. GGATTGTTTT  0.996 ± 0.023
67. TAGAGATCTG  0.996 ± 0.014
68. GAATAATTGG  0.996 ± 0.015
69. CAAGTAGACC  0.997 ± 0.13
70. TTTGGAGGAG  0.997 ± 0.048
71. TAAGAAAGGA  0.997 ± 0.048
72. TTGGGATGGG  0.998 ± 0.015
73. CGAAGTTTTT  0.998 ± 0.004
74. TTTATGAGGT  0.999 ± 0.02
75. GGAGTATTAG  0.999 ± 0.072
76. CAGTACGGGG  1 ± 0.01
77. TGCCTATGGA  1 ± 0.014
78. TTGAGGGCAG  1 ± 0.034
79. CAACTATTTT  1.002 ± 0.0083
80. TTTCGATTGC  1.004 ± 0.01
81. TGGTGACCGT  1 ± 0.025
82. ATAGCATGTT  1 ± 0.038
83. CAATAAATAG  1.005 ± 0.006
84. ACACAGTGCT  1 ± 0.011
85. TTGTCGTATC  1 ± 0.019
86. GGATTTGATG  1 ± 0.031
87. CGATTATGGT  1.003 ± 0.0094
88. TTATATGGGG  1 ± 0.018
89. CATGTATGCT  1 ± 0.014
90. TTAGGTTTCT  1 ± 0.011
91. TCGCGGGAAA  1.01 ± 0.025
92. TTAAGCTTAG  1.01 ± 0.015
93. TGTGGTTGCG  1.01 ± 0.017
94. CATGGTGGCG  1.01 ± 0.022
95. ATTGCTGCGA  1.006 ± 0.0075
96. TACGGGTCGA  1.01 ± 0.016
97. AGACGTGCGT  1.01 ± 0.048
98. TGGTTGCTTG  1.01 ± 0.034
99. ATTTGATTCG  1.008 ± 0.0087
100. GCCTGTAGGA  1.01 ± 0.015
101. AGTTAATGTT  1.01 ± 0.0026
102. TATATTTAAG  1.01 ± 0.03
103. ATGTATTGAG  1.008 ± 0.0025
104. AAGGCAAGGG  1.01 ± 0.028
105. CTGCGTCGGA  1.01 ± 0.032
106. GTATCTTACT  1.007 ± 0.0018
107. GGGGTGCTAT  1.01 ± 0.043
108. TACTTAAAAC  1.011 ± 0.0078
109. GGGAATGGAT  1.01 ± 0.029
110. TTTTCGAAAT  1.01 ± 0.024
111. AATGTCTCAG  1.014 ± 0.0091
112. TAACCGAGAT  1.01 ± 0.043
113. CTCGGGATCA  1.011 ± 0.0028
114. TCGGTGAATT  1.01 ± 0.011
115. GGCCTAGGGA  1.01 ± 0.056
116. GGGTACTGAT  1.01 ± 0.024
117. GGTAGTAGAT  1.01 ± 0.0072
118. GGCTAGGGGG  1.01 ± 0.022
119. CGACGATTTG  1.01 ± 0.026
120. GGAGGCAGGA  1.015 ± 0.0036
121. GGGTAATAAA  1.019 ± 0.0052
122. ATATGGCTTT  1.02 ± 0.013
123. GGTTGTAGGC  1.02 ± 0.017
124. GGGCACATCC  1.02 ± 0.025
125. CAGTTTAGCT  1.02 ± 0.015
126. ACTTCATTTT  1.02 ± 0.012
127. AGTAAGGGTA  1.0185 ± 0.00081
128. CCGTTTGGTC  1.02 ± 0.019
129. GGTAATTTAG  1.02 ± 0.015
130. AATCTCGTAA  1.02 ± 0.023
131. GTTGTAAGG  1.02 ± 0.025
132. AGACTCGGGT  1.02 ± 0.0013
133. TTATTCAAAT  1.02 ± 0.035
134. TTTAAACCGG  1.02 ± 0.016
135. AAAATATTTA  1.02 ± 0.012
136. AAAACTTTTG  1.02 ± 0.038
137. GGGGTAGTTT  1.02 ± 0.027
138. GGGAGGAGAC  1.02 ± 0.053
139. TCATGGGATG  1.02 ± 0.018
140. GCGGGTCGGA  1.02 ± 0.039
141. ACGACTGGGG  1.02 ± 0.03
142. AAGTGGGAAT  1.02 ± 0.013
143. TTGCCCCGTA  1.02 ± 0.023
144. GAGCTGACTT  1.02 ± 0.016
145. TTTTGAGAAT  1.017 ± 0.0015
146. TTCAATTTGC  1.02 ± 0.033
147. TTAATCCTTG  1.02 ± 0.034
148. TCCTGATTCT  1.03 ± 0.033
149. GAGTTTCAGA  1.033 ± 0.0033
150. GTGGGGTGAA  1.03 ± 0.055
151. GTTTCGAGCG  1.03 ± 0.013
152. GCTTTGGGAA  1.03 ± 0.04
153. GAGTGGGGA  1.03 ± 0.04
154. CCAAGTTGTG  1.03 ± 0.074
155. TTAGGAGGGG  1.03 ± 0.11
156. CATGTAACGC  1.04 ± 0.066
157. ATCGGTATCC  1.035 ± 0.0064
158. TACGTTTAAT  1.04 ± 0.031
159. AATATATACT  1.04 ± 0.027
160. AGCTGCTTGC  1.04 ± 0.066
161. TAGGGCGACT  1.04 ± 0.049
162. CTATTAGGGC  1.04 ± 0.0026
163. CGCTATTTTA  1.04 ± 0.039
164. ACAAGACTTA  1.04 ± 0.018
165. AAGTGGAGTC  1.05 ± 0.085
166. CTACGAGGTA  1.045 ± 0.0027
167. GGGACAGGGA  1.05 ± 0.066
168. GTCCGGGTGG  1.05 ± 0.1
169. TTACAAGTTA  1.05 ± 0.064
170. ATAAGAAGTG  1.05 ± 0.072
171. ACTCAGTGTC  1.05 ± 0.023
172. TGGGTGTTTT  1.05 ± 0.12
173. GCGTGATTGC  1.06 ± 0.031
174. TTATACACAT  1.06 ± 0.023
175. TATTGAAAAA  1.06 ± 0.048
176. GCTAATAGCC  1.059 ± 0.00084
177. ACTGGAGGTG  1.067 ± 0.0038
178. GGTGCGATTG  1.07 ± 0.052
179. TAAGTTTCCT  1.07 ± 0.03
180. GTGCCGGGGC  1.08 ± 0.11
181. TAACGGGTG  1.08 ± 0.018
182. CGGACCAACG  1.09 ± 0.019
183. ACACTTGCCA  1.09 ± 0.019
184. ACGGAAACGC  1.1 ± 0.02
185. AGGACGATGG  1.1 ± 0.16
186. AGATCTGCAT  1.11 ± 0.019
187. CCTGCCCTGT  1.108 ± 0.0022
188. GGGACGGAAC  1.12 ± 0.03
189. GCGACCCTT  1.12 ± 0.037
190. GATCACTGTA  1.15 ± 0.036
191. ACTTACTTT  1.16 ± 0.021
192. CGATAGTTGT  1.27 ± 0.38
193. TCCGGGATGG  1.33 ± 0.39
194. TACTACACAC  1.406 ± 0.013
195. ATTTTCCAGG  1.49 ± 0.26
196. ACCGCTTACG  1.56 ± 0.12
197. ACAACCAGGA  1.737 ± 0.00071
198. CCAGGTGTTA  2.31 ± 1.8
199. CGAATCCAGG  2.46 ± 0.062
200. CCTCTTCATA  2.54 ± 0.28
